Source: patent publication US20190185570A1 (IGM BIOSCIENCES, published 2019)

B1: anti-DR5 IgM (antibody, V domains shown)
VH: EVQLVQSGGGVERPGGSLRLSCAASGFTFDDYGMSWVRQAPGKGLEWVSGINWNGGSTGYADSVKGRVTISRDNAKNSLYLQMNSLRAEDTAVYYCAKILGAGRGWYFDLWGKGTTVTVSS
VL: SSELTQDPAVSVALGQTVRITCQGDSLRSYYASWYQQKPGQAPVLVIYGKNNRPSGIPDRFSGSSSGNTASLTITGAQAEDEADYYCNSRDSSGNHVVFGGGTKLTVLG

Experiments:
[1] = molecular target: Fc fusion protein of Human CTLA4 (human) (UniProt P16410); test: BLI (Fortebio), human CTLA4 Fc fusion immobilized by amine reactive chemistry
DR5 = DR5 (UniProt O14763 56-440, limits assumed); test: cell-based or functional assay

Chain of Fc fusion protein of Human CTLA4 (human) (P16410 36-161 limits assumed): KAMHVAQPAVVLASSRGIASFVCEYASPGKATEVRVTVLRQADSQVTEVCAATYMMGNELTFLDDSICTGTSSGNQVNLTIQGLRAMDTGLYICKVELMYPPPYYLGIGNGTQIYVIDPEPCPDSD

Molecule | Kd [1] [nM] | cytotoxic effect, cell viability of COLO205 cells (Cell-Titer Glo), fold against the corresponding IgG (DR5) [fold]
Anti CTLA4 IgG (BioLegend A3.B10.G1) (antibody) | 2 | 
B1 |  | > 1000
